Earlier results in paper PMC4976356, “Structural insight into β-Clamp and its interaction with DNA Ligase in Helicobacter pylori” (Scientific Reports, 2016).

System: Ecβ-clamp

B1: ligase from E. coli: E. coli DNA ligase examined for interaction with Ecβ-clamp (ref 10) (protein, UniProt P15042 1-671, looked up)
DNA ligase: MESIEQQLTELRTTLRHHEYLYHVMDAPEIPDAEYDRLMRELRELETKHPELITPDSPTQRVGAAPLAAFSQIRHEVPMLSLDNVFDEESFLAFNKRVQDRLKNNEKVTWCCELKLDGLAVSILYENGVLVSAATRGDGTTGEDITSNVRTIRAIPLKLHGENIPARLEVRGEVFLPQAGFEKINEDARRTGGKVFANPRNAAAGSLRQLDPRITAKRPLTFFCYGVGVLEGGELPDTHLGRLLQFKKWGLPVSDRVTLCESAEEVLAFYHKVEEDRPTLGFDIDGVVIKVNSLAQQEQLGFVARAPRWAVAFKFPAQEQMTFVRDVEFQVGRTGAITPVARLEPVHVAGVLVSNATLHNADEIERLGLRIGDKVVIRRAGDVIPQVVNVVLSERPEDTREVVFPTHCPVCGSDVERVEGEAVARCTGGLICGAQRKESLKHFVSRRAMDVDGMGDKIIDQLVEKEYVHTPADLFKLTAGKLTGLERMGPKSAQNVVNALEKAKETTFARFLYALGIREVGEATAAGLAAYFGTLEALEAASIEELQKVPDVGIVVASHVHNFFAEESNRNVISELLAEGVHWPAPIVINAEEIDSPFAGKTVVLTGSLSQMSRDDAKARLVELGAKVAGSVSKKTDLVIAGEAAGSKLAKAQELGIEVIDEAEMLRLLGS
Question: With B1 as the molecule, how does the “interaction with E. coli β-clamp (in words)” value read?
Answer: interacts with its β-clamp
